Laboratory results: article PMC9391305

Target: endogenous PKM2 of murine PDA^T and PDA^M cells (mouse (endogenous in PDA^T and PDA^M cells)) (UniProt P52480)
Assay: cross-linking

endogenous PKM2 of murine PDA^T and PDA^M cells, P52480 1-531 (enzyme; other documents disagree on this pair), sequence (P52480 whole entry): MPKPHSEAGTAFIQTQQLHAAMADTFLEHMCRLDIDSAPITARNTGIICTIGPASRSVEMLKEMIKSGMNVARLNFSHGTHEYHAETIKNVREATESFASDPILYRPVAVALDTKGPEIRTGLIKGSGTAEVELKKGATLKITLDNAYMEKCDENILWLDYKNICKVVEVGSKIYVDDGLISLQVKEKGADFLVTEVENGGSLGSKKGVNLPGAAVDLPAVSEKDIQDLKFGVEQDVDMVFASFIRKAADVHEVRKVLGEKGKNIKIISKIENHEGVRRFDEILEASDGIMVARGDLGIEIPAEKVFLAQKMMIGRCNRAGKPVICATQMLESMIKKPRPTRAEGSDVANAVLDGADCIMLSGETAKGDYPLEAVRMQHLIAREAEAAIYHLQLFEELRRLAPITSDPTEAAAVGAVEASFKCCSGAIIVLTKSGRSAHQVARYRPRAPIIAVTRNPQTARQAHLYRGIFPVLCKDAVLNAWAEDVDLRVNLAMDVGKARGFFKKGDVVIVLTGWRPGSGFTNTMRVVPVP

stoichiometry N: 4
Substance: endogenous PKM2 of murine PDA^T and PDA^M cells, P52480 1-531 (enzyme; other documents disagree on this pair)
